Results as given in patent EP4663654A1 (Hangzhou Sciwind Biosciences Co., Ltd., dated 2025).
Starred links: 1 amine or outer side, 2 acyl side, 3 side chain; linkers in the order of their positions; H or OH if unused. Non-standard residues stand in square brackets, D forms with d. Primed or numbered codes have the meaning given here. *: point of attachment. C20 diacid = O=C(O)CCCCCCCCCCCCCCCCCCC(=O)*; C18 diacid = O=C(O)CCCCCCCCCCCCCCCCC(=O)*; C16 diacid = O=C(O)CCCCCCCCCCCCCCC(=O)*; γGlu = O=C(O)[C@H](CCC(=O)[*:2])N[*:1]; βAsp = O=C(O)[C@H](CC(=O)[*:2])N[*:1]; Inp′ = not defined here; Trx′ = not defined here; AEEA = NCCOCCOCC(=O)O

T1: human amylin receptor (AMY3) on CHO-K1/Ga15/AMY3 amylin receptor/CRE-luc cells (human, UniProt P30988 25-474; O60896 24-148)
T1 sequence (looked up) 1: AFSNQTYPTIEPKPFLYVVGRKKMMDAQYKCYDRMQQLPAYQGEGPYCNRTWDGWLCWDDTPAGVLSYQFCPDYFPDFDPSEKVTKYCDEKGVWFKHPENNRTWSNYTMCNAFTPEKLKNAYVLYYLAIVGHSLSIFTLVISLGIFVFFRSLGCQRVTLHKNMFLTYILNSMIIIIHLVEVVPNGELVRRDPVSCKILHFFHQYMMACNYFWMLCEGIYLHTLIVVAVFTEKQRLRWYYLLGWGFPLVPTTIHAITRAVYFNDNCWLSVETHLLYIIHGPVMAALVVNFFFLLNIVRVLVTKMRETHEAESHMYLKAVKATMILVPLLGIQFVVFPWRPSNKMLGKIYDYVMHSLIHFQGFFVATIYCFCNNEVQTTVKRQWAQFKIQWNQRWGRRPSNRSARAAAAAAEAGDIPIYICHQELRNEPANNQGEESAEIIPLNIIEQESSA
T1 sequence (looked up) 2: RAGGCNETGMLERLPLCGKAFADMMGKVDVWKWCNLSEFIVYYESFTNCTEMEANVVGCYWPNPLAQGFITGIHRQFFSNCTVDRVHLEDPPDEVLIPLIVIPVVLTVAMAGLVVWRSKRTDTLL


Target: T1, human amylin receptor (AMY3) on …
Assay: cell-based or functional assay

EC50/nM, CRE-luciferase reporter in amylin receptor/CRE-luc CHO cells [nM]	Relative activity (the EC50 ratio of Cagrilintide to the compound) [%]	Binder
0.036	80	{C20 diacid}-D[AEEA][AEEA]ASQLSTAATQRLADFLRHFTDRDRDILPPTNVGSNTP-NH2 (SMILES CC[C@H](C)[C@H](NC(=O)[C@H](CC(=O)O)NC(=O)[C@H](CCCNC(=N)N)NC(=O)[C@H](CC(=O)O)NC(=O)[C@H](CCCNC(=N)N)NC(=O)[C@H](CC(=O)O)NC(=O)[C@@H](NC(=O)[C@H](Cc1ccccc1)NC(=O)[C@H](Cc1c[nH]cn1)NC(=O)[C@H](CCCNC(=N)N)NC(=O)[C@H](CC(C)C)NC(=O)[C@H](Cc1ccccc1)NC(=O)[C@H](CC(=O)O)NC(=O)[C@H](C)NC(=O)[C@H](CC(C)C)NC(=O)[C@H](CCCNC(=N)N)NC(=O)[C@H](CCC(N)=O)NC(=O)[C@@H](NC(=O)[C@H](C)NC(=O)[C@H](C)NC(=O)[C@@H](NC(=O)[C@H](CO)NC(=O)[C@H](CC(C)C)NC(=O)[C@H](CCC(N)=O)NC(=O)[C@H](CO)NC(=O)[C@H](C)NC(=O)COCCOCCNC(=O)COCCOCCNC(=O)[C@H](CC(=O)O)NC(=O)CCCCCCCCCCCCCCCCCCC(=O)O)[C@@H](C)O)[C@@H](C)O)[C@@H](C)O)C(=O)N[C@@H](CC(C)C)C(=O)N1CCC[C@H]1C(=O)N1CCC[C@H]1C(=O)N[C@H](C(=O)N[C@@H](CC(N)=O)C(=O)N[C@H](C(=O)NCC(=O)N[C@@H](CO)C(=O)N[C@@H](CC(N)=O)C(=O)N[C@H](C(=O)N1CCC[C@H]1C(N)=O)[C@@H](C)O)C(C)C)[C@@H](C)O) [polypeptide derivative M19]
0.017	171	{C20 diacid-Trx′-AEEA-AEEA}-ASQLSTAATQRLADFLRHFTDRDRDILPPTNVGSNTP-NH2 (reading uncertain) [polypeptide derivative M20]
0.066	47	{C20 diacid-γGlu-AEEA-AEEA-AEEA-AEEA}-ASQLSTAATQRLADFLRHFTDRDRDILPPTNVGSNTP-NH2 (SMILES CC[C@H](C)[C@H](NC(=O)[C@H](CC(=O)O)NC(=O)[C@H](CCCNC(=N)N)NC(=O)[C@H](CC(=O)O)NC(=O)[C@H](CCCNC(=N)N)NC(=O)[C@H](CC(=O)O)NC(=O)[C@@H](NC(=O)[C@H](Cc1ccccc1)NC(=O)[C@H](Cc1c[nH]cn1)NC(=O)[C@H](CCCNC(=N)N)NC(=O)[C@H](CC(C)C)NC(=O)[C@H](Cc1ccccc1)NC(=O)[C@H](CC(=O)O)NC(=O)[C@H](C)NC(=O)[C@H](CC(C)C)NC(=O)[C@H](CCCNC(=N)N)NC(=O)[C@H](CCC(N)=O)NC(=O)[C@@H](NC(=O)[C@H](C)NC(=O)[C@H](C)NC(=O)[C@@H](NC(=O)[C@H](CO)NC(=O)[C@H](CC(C)C)NC(=O)[C@H](CCC(N)=O)NC(=O)[C@H](CO)NC(=O)[C@H](C)NC(=O)COCCOCCNC(=O)COCCOCCNC(=O)COCCOCCNC(=O)COCCOCCNC(=O)CC[C@H](NC(=O)CCCCCCCCCCCCCCCCCCC(=O)O)C(=O)O)[C@@H](C)O)[C@@H](C)O)[C@@H](C)O)C(=O)N[C@@H](CC(C)C)C(=O)N1CCC[C@H]1C(=O)N1CCC[C@H]1C(=O)N[C@H](C(=O)N[C@@H](CC(N)=O)C(=O)N[C@H](C(=O)NCC(=O)N[C@@H](CO)C(=O)N[C@@H](CC(N)=O)C(=O)N[C@H](C(=O)N1CCC[C@H]1C(N)=O)[C@@H](C)O)C(C)C)[C@@H](C)O) [polypeptide derivative M24]
0.023	126	{C20 diacid-Inp′-AEEA-AEEA}-ASQLSTAATQRLADFLRHFTDRDRDILPPTNVGSNTP-NH2 [polypeptide derivative M21]
0.016	198	{C18 diacid-γGlu}-ASQLSTAATQRLADFLRHFTDRDRDILPPTNVGSNTP-NH2 (SMILES CC[C@H](C)[C@H](NC(=O)[C@H](CC(=O)O)NC(=O)[C@H](CCCNC(=N)N)NC(=O)[C@H](CC(=O)O)NC(=O)[C@H](CCCNC(=N)N)NC(=O)[C@H](CC(=O)O)NC(=O)[C@@H](NC(=O)[C@H](Cc1ccccc1)NC(=O)[C@H](Cc1c[nH]cn1)NC(=O)[C@H](CCCNC(=N)N)NC(=O)[C@H](CC(C)C)NC(=O)[C@H](Cc1ccccc1)NC(=O)[C@H](CC(=O)O)NC(=O)[C@H](C)NC(=O)[C@H](CC(C)C)NC(=O)[C@H](CCCNC(=N)N)NC(=O)[C@H](CCC(N)=O)NC(=O)[C@@H](NC(=O)[C@H](C)NC(=O)[C@H](C)NC(=O)[C@@H](NC(=O)[C@H](CO)NC(=O)[C@H](CC(C)C)NC(=O)[C@H](CCC(N)=O)NC(=O)[C@H](CO)NC(=O)[C@H](C)NC(=O)CC[C@H](NC(=O)CCCCCCCCCCCCCCCCC(=O)O)C(=O)O)[C@@H](C)O)[C@@H](C)O)[C@@H](C)O)C(=O)N[C@@H](CC(C)C)C(=O)N1CCC[C@H]1C(=O)N1CCC[C@H]1C(=O)N[C@H](C(=O)N[C@@H](CC(N)=O)C(=O)N[C@H](C(=O)NCC(=O)N[C@@H](CO)C(=O)N[C@@H](CC(N)=O)C(=O)N[C@H](C(=O)N1CCC[C@H]1C(N)=O)[C@@H](C)O)C(C)C)[C@@H](C)O) [polypeptide derivative M22]
0.017	182	{C16 diacid-γGlu}-ASQLSTAATQRLADFLRHFTDRDRDILPPTNVGSNTP-NH2 (SMILES CC[C@H](C)[C@H](NC(=O)[C@H](CC(=O)O)NC(=O)[C@H](CCCNC(=N)N)NC(=O)[C@H](CC(=O)O)NC(=O)[C@H](CCCNC(=N)N)NC(=O)[C@H](CC(=O)O)NC(=O)[C@@H](NC(=O)[C@H](Cc1ccccc1)NC(=O)[C@H](Cc1c[nH]cn1)NC(=O)[C@H](CCCNC(=N)N)NC(=O)[C@H](CC(C)C)NC(=O)[C@H](Cc1ccccc1)NC(=O)[C@H](CC(=O)O)NC(=O)[C@H](C)NC(=O)[C@H](CC(C)C)NC(=O)[C@H](CCCNC(=N)N)NC(=O)[C@H](CCC(N)=O)NC(=O)[C@@H](NC(=O)[C@H](C)NC(=O)[C@H](C)NC(=O)[C@@H](NC(=O)[C@H](CO)NC(=O)[C@H](CC(C)C)NC(=O)[C@H](CCC(N)=O)NC(=O)[C@H](CO)NC(=O)[C@H](C)NC(=O)CC[C@H](NC(=O)CCCCCCCCCCCCCCC(=O)O)C(=O)O)[C@@H](C)O)[C@@H](C)O)[C@@H](C)O)C(=O)N[C@@H](CC(C)C)C(=O)N1CCC[C@H]1C(=O)N1CCC[C@H]1C(=O)N[C@H](C(=O)N[C@@H](CC(N)=O)C(=O)N[C@H](C(=O)NCC(=O)N[C@@H](CO)C(=O)N[C@@H](CC(N)=O)C(=O)N[C@H](C(=O)N1CCC[C@H]1C(N)=O)[C@@H](C)O)C(C)C)[C@@H](C)O) [polypeptide derivative M23]
0.026	110	{C20 diacid-βAsp-AEEA-AEEA}-ASQLSTAATQRLADFLRHFTDRDRDILPPTNVGSNTP-NH2 (SMILES CC[C@H](C)[C@H](NC(=O)[C@H](CC(=O)O)NC(=O)[C@H](CCCNC(=N)N)NC(=O)[C@H](CC(=O)O)NC(=O)[C@H](CCCNC(=N)N)NC(=O)[C@H](CC(=O)O)NC(=O)[C@@H](NC(=O)[C@H](Cc1ccccc1)NC(=O)[C@H](Cc1c[nH]cn1)NC(=O)[C@H](CCCNC(=N)N)NC(=O)[C@H](CC(C)C)NC(=O)[C@H](Cc1ccccc1)NC(=O)[C@H](CC(=O)O)NC(=O)[C@H](C)NC(=O)[C@H](CC(C)C)NC(=O)[C@H](CCCNC(=N)N)NC(=O)[C@H](CCC(N)=O)NC(=O)[C@@H](NC(=O)[C@H](C)NC(=O)[C@H](C)NC(=O)[C@@H](NC(=O)[C@H](CO)NC(=O)[C@H](CC(C)C)NC(=O)[C@H](CCC(N)=O)NC(=O)[C@H](CO)NC(=O)[C@H](C)NC(=O)COCCOCCNC(=O)COCCOCCNC(=O)C[C@H](NC(=O)CCCCCCCCCCCCCCCCCCC(=O)O)C(=O)O)[C@@H](C)O)[C@@H](C)O)[C@@H](C)O)C(=O)N[C@@H](CC(C)C)C(=O)N1CCC[C@H]1C(=O)N1CCC[C@H]1C(=O)N[C@H](C(=O)N[C@@H](CC(N)=O)C(=O)N[C@H](C(=O)NCC(=O)N[C@@H](CO)C(=O)N[C@@H](CC(N)=O)C(=O)N[C@H](C(=O)N1CCC[C@H]1C(N)=O)[C@@H](C)O)C(C)C)[C@@H](C)O) [polypeptide derivative M18]
